The text below walks through data of patent publication US20230331827A1, “POTASSIUM CHANNEL INHIBITORS” (priority 2017, published 2023).

Changes are numbered by the printed parent chain. A value given as a limit tells only on which side of the number the result lay.

Assay [1] addresses trypsin. Description: TRF, 10 ug/mL Fab on trypsin.
In assay [2] the target is trypsin. Put plainly: TRF, 2.4 ug/mL Fab on trypsin.
Assay [3] has as its target trypsin. Description: TRF, 0.6 ug/mL Fab on trypsin.
The target in a further assay is human Kv1.3 (human) (UniProt P22001). Description: cell-based or functional assay.
human Kv1.3 (human), sequence (P22001 whole entry): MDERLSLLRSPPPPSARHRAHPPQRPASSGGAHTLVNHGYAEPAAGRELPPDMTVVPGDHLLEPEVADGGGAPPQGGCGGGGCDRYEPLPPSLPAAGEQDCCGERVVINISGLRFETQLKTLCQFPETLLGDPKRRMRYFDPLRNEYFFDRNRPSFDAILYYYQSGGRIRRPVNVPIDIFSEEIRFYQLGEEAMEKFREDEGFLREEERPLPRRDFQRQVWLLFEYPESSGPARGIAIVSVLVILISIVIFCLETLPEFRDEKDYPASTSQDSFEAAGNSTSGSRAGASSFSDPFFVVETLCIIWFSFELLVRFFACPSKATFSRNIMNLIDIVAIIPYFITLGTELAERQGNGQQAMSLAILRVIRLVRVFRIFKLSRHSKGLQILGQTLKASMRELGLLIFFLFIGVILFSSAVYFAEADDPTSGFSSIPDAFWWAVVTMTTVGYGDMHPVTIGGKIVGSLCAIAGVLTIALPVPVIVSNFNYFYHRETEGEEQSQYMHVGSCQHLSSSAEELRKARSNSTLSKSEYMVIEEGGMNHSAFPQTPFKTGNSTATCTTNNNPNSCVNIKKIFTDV
Assay [4] addresses trypsin. Put plainly: phage TRF on trypsin.

B1: KB_A05 Fab (Fab, V domains shown)
VH: EVQLVESGGGLVRPGGSLRLSCAASGFTFSSYAMSWVRQAPGKGLEWVSAISGSGGSTYYADSVKGRFTISRDNTKNSLYLQMTSLRADDTAFYYCVDFGPGYGTGWFDYWGPGTLVTVSS
VL: AVNWYQQLPGKAPKLLIYAADKCPRILMRCKQDSDCLAGCVCGPNGFCGGGSGIPERFSGSKSGTSASLAISGLRSEDEADYYCATWDDNLNGVVFGGGTKLTVLG
With B1, the TRF signal was found to be 218000 in the assay with trypsin [1], 65400 with trypsin [2] and 46700 in the assay with trypsin [3].

B2: KB_A07_ShK (antibody, V domains shown)
VH: EVQLVESGGGLVRPGGSLRLSCAASGFTFSSYAMSWVRQAPGKGLEWVSAISGSGGSTYYADSVKGRFTISRDNTKNSLYLQMTSLRADDTAFYYCVKDFGPGYGTGWFDYWGPGTLVTVSS
VL: NWYQQKPGKAPKLLIYAAGVRSCIDTIPKSRCTAFQCKHSMKYRLSFCRKTCGTCSRSGVPSRFSGSGSGTDFTLTISSLQPEDFATYYCQQGASPPYTFGQGTKVEIKR
Turning to B2, the IC50, huKv1.3 current, QPatch patch clamp with human Kv1.3 (human) was found to be 40 nM.

B3: KB_B01 (scFv on phage) (scFv, V domains shown)
VH: B2 VH
VL: AVNWYQQLPGKAPKLLIYAAAGCPRILMRCKQDSDCLAGCVCGPNGFCGTRSGVSDRFSGSKSGTSASLAISGLRSEDEADYYCAAWDDSLRAYVFGTGTKLTVLG
Take B3: the Tryspin binding signal (FU) in the assay with trypsin [4] turned out to be 57700 FU.

B4: KB_C08 (scFv on phage) (scFv, V domains shown)
VH: B2 VH
VL: B1 VL with D21A, K22V, G50T, G51R, S68F, T86A, N90S, N92S
Consider B4, for which the Tryspin binding signal (FU) with trypsin [4] came out at 76800 FU.

B5: KB_A06 Fab (Fab, V domains shown)
VH: B2 VH
VL: AVNWYQQLPGKAPKLLIYAAVRCPRILMRCKQDSDCLAGCVCGPNGFCGTPSGIPERFSGSIDRSTNSASLTISGLKTEDEADYYCQSYDSSNLNWVFGGGTKLTVLG
For the molecule B5, the results for the TRF signal in the assay with trypsin [1], with trypsin [2] and with trypsin [3] were 242000, 212000 and 108000, respectively.

B6: KB_A11 (scFv on phage) (scFv, V domains shown)
VH: B2 VH
VL: YLNWYQQKPGKAPKLLIYAAEICPRILMRCKQDSDCLAGCVCGPNGFCGPSSGIPARFSGSGYGTDFTLTINNIESEDAAYYFCLQHDNFPYTFGQGTKVEIKR
B6 gave a Tryspin binding signal (FU) with trypsin [4] of 16400 FU.

B7: KB_A07_MoKa-1 (antibody, V domains shown)
VH: B2 VH
VL: DIQMTQSPSSLSASVGDRVTITCRASQSISSYLNWYQQKPGKAPKLLIYAAGVINVKCSLPQQCIKPCKDAGMRFGKCMNKKCRCYSSRSGVPSRFSGSGSGTDFTLTISSLQPEDFATYYCQQGASPPYTFGQGTKVEIKRT
Take B7: in the assay with human Kv1.3 (human), the IC50, huKv1.3 current, QPatch patch clamp was > 10000 nM.

B8: KB_A07 Fab (Fab, V domains shown)
VH: B2 VH
VL: YLNWYQQKPGKAPKLLIYAAGVCPRILMRCKQDSDCLAGCVCGPNGFCGSRSGVPSRFSGSGSGTDFTLTISSLQPEDFATYYCQQGASPPYTFGQGTKVEIKR
B8: the TRF signal stood at 226000 in the assay with trypsin [1], 201000 in the assay with trypsin [2] and 108000 with trypsin [3].

B9: KB_A09 Fab (Fab, V domains shown)
VH: B2 VH
VL: AVNWYQQLPGKAPKLLIYAAERCPRILMRCKQDSDCLAGCVCGPNGFCGTPSGVPDRFSGSIDTFSNSASLTISGLKTEDEADYYCQSYDSSHHWVFGGGTKLTVLG
Take B9: the figures for the TRF signal in the assay with trypsin [1], with trypsin [2] and with trypsin [3] were 161000, 84100 and 21000, respectively.

B10: KB_C07 (scFv on phage) (scFv, V domains shown)
VH: B2 VH
VL: B3 VL with A21V, T50S, R51A, A86S, A93G, L102V
Molecule B10 gave a Tryspin binding signal (FU) with trypsin [4] of 43300 FU.

B11: KB_A06 (scFv on phage) (scFv, V domains shown)
VH: B2 VH
VL: B5 VL
B11: in the assay with trypsin [4], the Tryspin binding signal (FU) stood at 24400 FU.

B12: KB_A02 (scFv on phage) (scFv, V domains shown)
VH: B2 VH
VL: AVNWYQQLPGKAPKLLIYAAAKCPRILMRCKQDSDCLAGCVCGPNGFCGGASGVSDRFSGSIDSSSNSASLTISGLKPEDEGDYYCQSYDSSNRWVFGGGTKVTVLG
B12 returned a Tryspin binding signal (FU) with trypsin [4] of 183000 FU.

B13: KB_B02 (scFv on phage) (scFv, V domains shown)
VH: B2 VH
VL: AVNWYQQLPGKAPKLLIYAAVGCPRILMRCKQDSDCLAGCVCGPNGFCGTGSGIPERFSGSKSGNTASLTISGLQAEDEGDYYCAAWDDSLSGPVFGGGTKLTVLG
In the assay with trypsin [4], B13 registered a Tryspin binding signal (FU) of 116000 FU.

B14: KB_B10 (scFv on phage) (scFv, V domains shown)
VH: B2 VH
VL: QSVLTQLPSVSEAPRQRVTITCGRAMCPRILMRCKQDSDCLAGCVCGPNGFCGTGNWYQQHPGKAPKLIIFDVSKRPSGVPDRFSASKSGNTASLTISGLQAEDEADYYCNSYTSSNTWVFGGGTQLTVLG
In the assay with trypsin [4], B14 displayed a Tryspin binding signal (FU) of 9270 FU.

B15: KB_B11 (scFv on phage) (scFv, V domains shown)
VH: B2 VH
VL: TQPPSVSEAPRQRVTITCGSRPCPRILMRCKQDSDCLAGCVCGPNGFCGSHNWYQQLPGSSPTTVIYEDNQRPSGVPDRFSGSIDRSSNSASLTISGLKTEDEADYYCQSYDSSNHRVVFGGGTKLTVLG
In the case of B15, the Tryspin binding signal (FU) with trypsin [4] was found to be 10300 FU.

B16: KB_A02 Fab (Fab, V domains shown)
VH: B2 VH
VL: B12 VL
On to B16, for which the TRF signal with trypsin [1] worked out at 255000; with trypsin [2], 221000; with trypsin [3] it was 93800.

B17: KB_A01 Fab (Fab, V domains shown)
VH: B2 VH
VL: YLNWYQQKPGKAPKLLIYAAEVCPRILMRCKQDSDCLAGCVCGPNGFCGGTSGVPSRFSGSRSGTEFTLTISSLQPEDFATYYCQKVDDYPLTFGGGTKVEIKR
Turning to B17, the TRF signal in the assay with trypsin [1] worked out at 55600; in the assay with trypsin [2], 16600; in the assay with trypsin [3] it was 2390.

B18: KB_A07_KTX (antibody, V domains shown)
VH: B2 VH
VL: DIQMTQSPSSLSASVGDRVTITCRASQSISSYLNWYQQKPGKAPKLLIYAAGVGVEINVKCSGSPQCLKPCKDAGMRFGKCMNRKCHCTPKSRSGVPSRFSGSGSGTDFTLTISSLQPEDFATYYCQQGASPPYTFGQGTKVEIKR
B18 showed an IC50, huKv1.3 current, QPatch patch clamp in the assay with human Kv1.3 (human) of 900 nM.

B19: KB_A03 (scFv on phage) (scFv, V domains shown)
VH: B2 VH
VL: AVNWYQQLPGKAPKLLINAADRCPRILMRCKQDSDCLAGCVCGPNGFCGTNSGVPDRFSGSSSGNTASLTITGAQAEDEADYYCNSRDSSGNNWVFGGGTKVTVLG
B19: in the assay with trypsin [4], the Tryspin binding signal (FU) stood at 28700 FU.

B20: KB_C09 (scFv on phage) (scFv, V domains shown)
VH: B2 VH
VL: B9 VL with E21G, T50G, P51G, T64S, F65S, K77R, T78A, H93N
On to B20, for which the Tryspin binding signal (FU) with trypsin [4] amounted to 89400 FU.

B21: KB_B12 (scFv on phage) (scFv, V domains shown)
VH: B2 VH
VL: TQPPSVSEAPRQRVTITCGERPCPRILMRCKQDSDCLAGCVCGPNGFCGANNWYQQLPGSSPTTVIYEDNQRPSGVPDRFSGSIDSSSNSASLTISGLKTEDEADYYCQSYDSSNQVFGGGTKVTVLG
As to B21, the Tryspin binding signal (FU) with trypsin [4] stood at 17400 FU.

B22: KB_A05 (scFv on phage) (scFv, V domains shown)
VH: B2 VH
VL: B1 VL
For B22, the Tryspin binding signal (FU) in the assay with trypsin [4] worked out at 121000 FU.

B23: KB_A10 (scFv on phage) (scFv, V domains shown)
VH: B2 VH
VL: B13 VL with V21G, T50S, G51N, I54V, E56D, A76S, G80A, P94V, K101Q
B23 displayed a Tryspin binding signal (FU) in the assay with trypsin [4] of 38800 FU.

B24: KB_A01 (scFv on phage) (scFv, V domains shown)
VH: B2 VH
VL: B17 VL
In the assay with trypsin [4], B24 returned a Tryspin binding signal (FU) of 20200 FU.

B25: KB_A09 (scFv on phage) (scFv, V domains shown)
VH: B2 VH
VL: B9 VL
For B25, in the assay with trypsin [4], the Tryspin binding signal (FU) was found to be 57700 FU.

B26: KB_C10 (scFv on phage) (scFv, V domains shown)
VH: B2 VH
VL: AVNWYQQLPGKAPKLLIYAAGPCPRILMRCKQDSDCLAGCVCGPNGFCGADSGVSDRFSGSKSGTSASLAITGLQAEDEGDYYCAAWDDSLNGLVFGGGTKVTVLG
For B26, in the assay with trypsin [4], the Tryspin binding signal (FU) came to 119000 FU.
